{
  "source": "the MegaScale stability set (Tsuboyama et al. 2023)",
  "parents": {"B1": {"name": "HEEH_KT_rd6_0007 (parent)", "chain": "SIEEEIKKAEEAKEKGKTFIHGDFVATTEELLDELLKRLRKKL"}},
  "data": [
    {"variants_of": "B1", "test": "folding stability dG (cDNA display proteolysis); higher = more stable", "conditions": "PBS, room temperature", "units": {"folding stability dG": "kcal/mol"}, "values": [
      {"variant": "SIEEEIKKAEEAKEKGKTFIHGDFVYTTEELLDELLKRLRKKL", "note": "[A26Y]", "folding stability dG": 1.6},
      {"variant": "SIEEEIKKAEEAKEKGKTFIHGDFVGTTEELLDELLKRLRKKL", "note": "[A26G]", "folding stability dG": 0.7},
      {"variant": "SIEEEIKKAEEAKEKGKTFIHGDFVTTTEELLDELLKRLRKKL", "note": "[A26T]", "folding stability dG": 0.686},
      {"variant": "SIEEEIKKAEEAKEKGKTFIHGDFVSTTEELLDELLKRLRKKL", "note": "[A26S]", "folding stability dG": 0.724},
      {"variant": "SIEEEIKKAEEAKEKGKTFIWGDFVATTEELLDELLKRLRKKL", "note": "[H21W]", "folding stability dG": 1.78},
      {"variant": "SIEEEIKKAEEAKEKGKTFIVGDFVATTEELLDELLKRLRKKL", "note": "[H21V]", "folding stability dG": 1.04},
      {"variant": "SIEEEIKKAEEAKEKGKTFILGDFVATTEELLDELLKRLRKKL", "note": "[H21L]", "folding stability dG": 1.29},
      {"variant": "SIEEEIKKAEEAKEKGKTFISGDFVATTEELLDELLKRLRKKL", "note": "[H21S]", "folding stability dG": 1.39},
      {"variant": "SIEEEIKKAEEAKEKGKTFINGDFVATTEELLDELLKRLRKKL", "note": "[H21N]", "folding stability dG": 0.77},
      {"variant": "SIEEEIKKAEEAKEKGKTFIQGDFVATTEELLDELLKRLRKKL", "note": "[H21Q]", "folding stability dG": 1.03},
      {"variant": "SIEEEIKKAEEAKEKGKTFIAGDFVATTEELLDELLKRLRKKL", "note": "[H21A]", "folding stability dG": 0.946},
      {"variant": "SIEEEIKKAEEAKEKGKTFIKGDFVATTEELLDELLKRLRKKL", "note": "[H21K]", "folding stability dG": 0.812},
      {"variant": "SIEEEIKKAEEAKEKGKTFIDGDFVATTEELLDELLKRLRKKL", "note": "[H21D]", "folding stability dG": 0.707},
      {"variant": "SIEEEIKKAEEAKEKGKTFIEGDFVATTEELLDELLKRLRKKL", "note": "[H21E]", "folding stability dG": 0.742},
      {"variant": "SIEEEIKKAEEAKEKGKTFITGDFVATTEELLDELLKRLRKKL", "note": "[H21T]", "folding stability dG": 0.971},
      {"variant": "SIEEEIKKAEEAKEKGKTFIYGDFVATTEELLDELLKRLRKKL", "note": "[H21Y]", "folding stability dG": 1.76},
      {"variant": "SIEEEIKKAEEAKEKGKTFIFGDFVATTEELLDELLKRLRKKL", "note": "[H21F]", "folding stability dG": 1.52},
      {"variant": "SIEEEIKKAEEAKEKGKTFIMGDFVATTEELLDELLKRLRKKL", "note": "[H21M]", "folding stability dG": 1.08},
      {"variant": "SIEEEIKKAEEAKEKGKTFIPGDFVATTEELLDELLKRLRKKL", "note": "[H21P]", "folding stability dG": 0.759},
      {"variant": "SIEEEIKKAEEAKEKGKTFIRGDFVATTEELLDELLKRLRKKL", "note": "[H21R]", "folding stability dG": 0.838},
      {"variant": "SIEEEIKKAEEAKEKGKTFIIGDFVATTEELLDELLKRLRKKL", "note": "[H21I]", "folding stability dG": 1.03},
      {"variant": "SIEEEIKKAEEAKEKGKTFIGGDFVATTEELLDELLKRLRKKL", "note": "[H21G]", "folding stability dG": 0.81},
      {"variant": "SIEEEIKKAEEAKEKGKTFIHNDFVATTEELLDELLKRLRKKL", "note": "[G22N]", "folding stability dG": 0.979},
      {"variant": "SIEEEIKKAEEAKEKGKTFIHPDFVATTEELLDELLKRLRKKL", "note": "[G22P]", "folding stability dG": 0.931},
      {"variant": "SIEEEIKKAEEAKEKGKTFIHRDFVATTEELLDELLKRLRKKL", "note": "[G22R]", "folding stability dG": 0.665},
      {"variant": "SIEEEIKKAEEAKEKGKTFIHADFVATTEELLDELLKRLRKKL", "note": "[G22A]", "folding stability dG": 0.902},
      {"variant": "SIEEEIKKAEEAKEKGKTFIHTDFVATTEELLDELLKRLRKKL", "note": "[G22T]", "folding stability dG": 0.814},
      {"variant": "SIEEEIKKAEEAKEKGKTFIHDDFVATTEELLDELLKRLRKKL", "note": "[G22D]", "folding stability dG": 0.958},
      {"variant": "SIEEEIKKAEEAKEKGKTFIHHDFVATTEELLDELLKRLRKKL", "note": "[G22H]", "folding stability dG": 1.02},
      {"variant": "SIEEEIKKAEEAKEKGKTFIHYDFVATTEELLDELLKRLRKKL", "note": "[G22Y]", "folding stability dG": 1.23},
      {"variant": "SIEEEIKKAEEAKEKGKTFIHLDFVATTEELLDELLKRLRKKL", "note": "[G22L]", "folding stability dG": 1.2},
      {"variant": "SIEEEIKKAEEAKEKGKTFIHVDFVATTEELLDELLKRLRKKL", "note": "[G22V]", "folding stability dG": 1.09},
      {"variant": "SIEEEIKKAEEAKEKGKTFIHSDFVATTEELLDELLKRLRKKL", "note": "[G22S]", "folding stability dG": 0.873},
      {"variant": "SIEEEIKKAEEAKEKGKTFIHIDFVATTEELLDELLKRLRKKL", "note": "[G22I]", "folding stability dG": 1.45},
      {"variant": "SIEEEIKKAEEAKEKGKTFIHWDFVATTEELLDELLKRLRKKL", "note": "[G22W]", "folding stability dG": 1.53},
      {"variant": "SIEEEIKKAEEAKEKGKTFIHQDFVATTEELLDELLKRLRKKL", "note": "[G22Q]", "folding stability dG": 0.893},
      {"variant": "SIEEEIKKAEEAKEKGKTFIHMDFVATTEELLDELLKRLRKKL", "note": "[G22M]", "folding stability dG": 1.15},
      {"variant": "SIEEEIKKAEEAKEKGKTFIHFDFVATTEELLDELLKRLRKKL", "note": "[G22F]", "folding stability dG": 1.14},
      {"variant": "SIEEEIKKAEEAKEKGKTFIHKDFVATTEELLDELLKRLRKKL", "note": "[G22K]", "folding stability dG": 0.822},
      {"variant": "SIEEEIKKAEEAKEKGKTFIHEDFVATTEELLDELLKRLRKKL", "note": "[G22E]", "folding stability dG": 1.12},
      {"variant": "SIEEEIKKAEEAKEKGKTFIHGDHVATTEELLDELLKRLRKKL", "note": "[F24H]", "folding stability dG": 0.746},
      {"variant": "SIEEEIKKAEEAKEKGKTFIHGDCVATTEELLDELLKRLRKKL", "note": "[F24C]", "folding stability dG": 1.49},
      {"variant": "SIEEEIKKAEEAKEKGKTFIHGDVVATTEELLDELLKRLRKKL", "note": "[F24V]", "folding stability dG": 0.78},
      {"variant": "SIEEEIKKAEEAKEKGKTFIHGDGVATTEELLDELLKRLRKKL", "note": "[F24G]", "folding stability dG": 0.708},
      {"variant": "SIEEEIKKAEEAKEKGKTFIHGDDVATTEELLDELLKRLRKKL", "note": "[F24D]", "folding stability dG": 0.649},
      {"variant": "SIEEEIKKAEEAKEKGKTFIHGDWVATTEELLDELLKRLRKKL", "note": "[F24W]", "folding stability dG": 1.22},
      {"variant": "SIEEEIKKAEEAKEKGKTFIHGDRVATTEELLDELLKRLRKKL", "note": "[F24R]", "folding stability dG": -0.367},
      {"variant": "SIEEEIKKAEEAKEKGKTFIHGDAVATTEELLDELLKRLRKKL", "note": "[F24A]", "folding stability dG": 0.492},
      {"variant": "SIEEEIKKAEEAKEKGKTFIHGDMVATTEELLDELLKRLRKKL", "note": "[F24M]", "folding stability dG": 0.889},
      {"variant": "SIEEEIKKAEEAKEKGKTFIHGDYVATTEELLDELLKRLRKKL", "note": "[F24Y]", "folding stability dG": 1.02},
      {"variant": "SIEEEIKKAEEAKEKGKTFIHGDKVATTEELLDELLKRLRKKL", "note": "[F24K]", "folding stability dG": 0.243},
      {"variant": "SIEEEIKKAEEAKEKGKTFIHGDSVATTEELLDELLKRLRKKL", "note": "[F24S]", "folding stability dG": 0.627},
      {"variant": "SIEEEIKKAEEAKEKGKTFIHGDNVATTEELLDELLKRLRKKL", "note": "[F24N]", "folding stability dG": 0.509},
      {"variant": "SIEEEIKKAEEAKEKGKTFIHGDQVATTEELLDELLKRLRKKL", "note": "[F24Q]", "folding stability dG": 0.726},
      {"variant": "SIEEEIKKAEEAKEKGKTFIHGDEVATTEELLDELLKRLRKKL", "note": "[F24E]", "folding stability dG": 0.854},
      {"variant": "SIEEEIKKAEEAKEKGKTFIHGDPVATTEELLDELLKRLRKKL", "note": "[F24P]", "folding stability dG": 0.489},
      {"variant": "SIEEEIKKAEEAKEKGKTFIHGDIVATTEELLDELLKRLRKKL", "note": "[F24I]", "folding stability dG": 1.03},
      {"variant": "SIEEEIKKAEEAKEKGKTFIHGDTVATTEELLDELLKRLRKKL", "note": "[F24T]", "folding stability dG": 0.846},
      {"variant": "SIEEEIKKAEEAKEKGKTFIHGDLVATTEELLDELLKRLRKKL", "note": "[F24L]", "folding stability dG": 0.965}
    ]}
  ]
}
